Experimental data taken from publication PMC4211926 (Journal of molecular biology, 2013).
Like-named read-outs stand apart in the source and are kept apart here.

What was measured:
[1] = biological target: T1, SIRT1 catalytic domain (SIRT1^CAT), residues 234-510 (human, UniProt Q96EB6 234-510); test: SEC
T1 sequence (looked up): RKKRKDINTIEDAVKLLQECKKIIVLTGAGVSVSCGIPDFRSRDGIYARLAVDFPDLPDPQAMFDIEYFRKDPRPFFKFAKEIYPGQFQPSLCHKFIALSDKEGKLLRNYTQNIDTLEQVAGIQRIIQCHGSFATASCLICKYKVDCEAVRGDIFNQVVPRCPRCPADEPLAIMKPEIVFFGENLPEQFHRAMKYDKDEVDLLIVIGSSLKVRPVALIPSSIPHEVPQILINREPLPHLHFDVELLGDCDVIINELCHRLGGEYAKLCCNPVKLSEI

[2] = biological target: T2, His-tagged SIRT1 catalytic domain (His-tagged SIRT1^CAT) (human, UniProt Q96EB6 234-510); test: pull-down
T2 sequence (looked up): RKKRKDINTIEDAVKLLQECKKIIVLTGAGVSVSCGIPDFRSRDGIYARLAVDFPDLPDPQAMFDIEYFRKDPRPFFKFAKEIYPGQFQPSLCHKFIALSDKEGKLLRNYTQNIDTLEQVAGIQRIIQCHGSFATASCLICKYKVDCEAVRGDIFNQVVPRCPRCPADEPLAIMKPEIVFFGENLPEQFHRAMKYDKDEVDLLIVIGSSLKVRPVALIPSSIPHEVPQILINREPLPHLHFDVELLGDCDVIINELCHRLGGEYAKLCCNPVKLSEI

[3] = biological target: T1, SIRT1 catalytic domain (SIRT1^CAT), …; test: SEC; remark: listed apart in the source
[4] = biological target: T3, SIRT1^CAT S265A (human, UniProt Q96EB6 234-510, S265A); test: SEC
T3 sequence (looked up): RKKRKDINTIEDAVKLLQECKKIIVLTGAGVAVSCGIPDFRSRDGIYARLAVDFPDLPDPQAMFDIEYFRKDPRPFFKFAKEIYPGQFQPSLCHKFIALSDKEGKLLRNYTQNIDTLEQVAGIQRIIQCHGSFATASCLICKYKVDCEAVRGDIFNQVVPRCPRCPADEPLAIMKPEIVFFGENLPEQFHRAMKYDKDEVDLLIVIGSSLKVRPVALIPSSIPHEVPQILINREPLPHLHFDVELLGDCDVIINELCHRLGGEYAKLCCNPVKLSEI

[5] = biological target: T4, SIRT1^CAT R276A (human, UniProt Q96EB6 234-510, R276A); test: SEC
T4 sequence (looked up): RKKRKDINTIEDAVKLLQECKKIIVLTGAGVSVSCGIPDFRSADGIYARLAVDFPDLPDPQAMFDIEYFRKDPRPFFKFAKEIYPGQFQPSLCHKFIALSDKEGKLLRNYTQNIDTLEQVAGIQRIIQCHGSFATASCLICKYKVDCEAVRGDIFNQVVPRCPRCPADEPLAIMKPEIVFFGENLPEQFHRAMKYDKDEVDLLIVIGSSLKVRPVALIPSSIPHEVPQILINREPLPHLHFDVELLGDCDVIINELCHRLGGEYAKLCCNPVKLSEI

[6] = biological target: T5, SIRT1^CAT Q345A (human, UniProt Q96EB6 234-510, Q345A); test: SEC
T5 sequence (looked up): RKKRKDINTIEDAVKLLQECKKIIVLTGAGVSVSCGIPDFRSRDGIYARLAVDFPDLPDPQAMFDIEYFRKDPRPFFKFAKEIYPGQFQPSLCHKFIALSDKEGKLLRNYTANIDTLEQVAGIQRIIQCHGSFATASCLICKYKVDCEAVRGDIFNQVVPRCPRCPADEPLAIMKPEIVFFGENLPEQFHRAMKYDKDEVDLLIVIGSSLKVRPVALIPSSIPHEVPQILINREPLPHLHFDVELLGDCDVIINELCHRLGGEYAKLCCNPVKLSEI

[7] = biological target: T6, SIRT1^CAT I347A (human, UniProt Q96EB6 234-510, I347A); test: SEC
T6 sequence (looked up): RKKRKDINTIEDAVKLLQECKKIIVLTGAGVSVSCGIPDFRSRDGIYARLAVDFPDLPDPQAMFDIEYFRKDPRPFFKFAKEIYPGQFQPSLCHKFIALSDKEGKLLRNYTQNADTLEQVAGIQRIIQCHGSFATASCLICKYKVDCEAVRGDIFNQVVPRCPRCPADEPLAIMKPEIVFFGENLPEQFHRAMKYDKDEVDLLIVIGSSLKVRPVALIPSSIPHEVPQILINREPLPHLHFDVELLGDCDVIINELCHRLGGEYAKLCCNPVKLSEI

[8] = biological target: T7, SIRT1^CAT H363A (human, UniProt Q96EB6 234-510, H363A); test: SEC
T7 sequence (looked up): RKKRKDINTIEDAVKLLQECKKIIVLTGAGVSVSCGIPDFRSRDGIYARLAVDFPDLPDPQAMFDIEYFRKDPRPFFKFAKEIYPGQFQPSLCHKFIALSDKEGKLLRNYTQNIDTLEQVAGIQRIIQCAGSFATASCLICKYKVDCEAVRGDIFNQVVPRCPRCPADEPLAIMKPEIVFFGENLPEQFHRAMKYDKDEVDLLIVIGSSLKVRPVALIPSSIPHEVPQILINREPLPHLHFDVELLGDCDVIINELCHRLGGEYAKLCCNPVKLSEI

[9] = biological target: T8, SIRT1^CAT F414A (human, UniProt Q96EB6 234-510, F414A); test: SEC
T8 sequence (looked up): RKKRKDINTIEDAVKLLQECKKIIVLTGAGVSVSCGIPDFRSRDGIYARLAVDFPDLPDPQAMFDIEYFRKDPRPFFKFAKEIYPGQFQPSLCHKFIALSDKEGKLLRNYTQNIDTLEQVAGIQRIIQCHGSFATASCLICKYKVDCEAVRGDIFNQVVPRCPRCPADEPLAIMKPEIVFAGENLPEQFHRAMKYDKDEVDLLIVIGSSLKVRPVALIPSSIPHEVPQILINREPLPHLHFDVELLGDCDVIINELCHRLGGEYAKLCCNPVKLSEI

[10] = biological target: T9, SIRT1^CAT R466A (human, UniProt Q96EB6 234-510, R466A); test: SEC
T9 sequence (looked up): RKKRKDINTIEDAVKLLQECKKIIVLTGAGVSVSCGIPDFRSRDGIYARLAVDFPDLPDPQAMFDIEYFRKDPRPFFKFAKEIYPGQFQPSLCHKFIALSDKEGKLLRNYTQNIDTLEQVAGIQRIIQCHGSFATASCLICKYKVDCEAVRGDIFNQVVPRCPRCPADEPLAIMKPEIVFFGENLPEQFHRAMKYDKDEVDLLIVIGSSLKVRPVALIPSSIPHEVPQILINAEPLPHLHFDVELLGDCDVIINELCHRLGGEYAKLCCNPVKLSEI

[11] = biological target: T10, SIRT1^CAT D481A (human, UniProt Q96EB6 234-510, D481A); test: SEC
T10 sequence (looked up): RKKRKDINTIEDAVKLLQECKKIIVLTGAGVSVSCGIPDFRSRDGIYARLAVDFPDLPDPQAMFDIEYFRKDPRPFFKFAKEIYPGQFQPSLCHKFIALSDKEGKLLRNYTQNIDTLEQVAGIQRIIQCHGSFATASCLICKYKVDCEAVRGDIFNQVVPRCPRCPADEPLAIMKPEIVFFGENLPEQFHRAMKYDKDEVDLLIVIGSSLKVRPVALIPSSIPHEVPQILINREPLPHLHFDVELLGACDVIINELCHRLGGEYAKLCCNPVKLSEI

[12] = biological target: T1, SIRT1 catalytic domain (SIRT1^CAT), …; test: SEC; remark: listed apart in the source

Measured: binding result

QYLFLPPNRYIFHGAEVYSDSEDDV (domain or fragment, human, UniProt Q96EB6 641-665, looked up) [SUMO-tagged C-terminal regulatory segment of SIRT1 (SUMO-CTR), residues 641-665]
binds: [1] | [2]

QYLFLPPNRYIFHGAAVYSDSEDDV (domain or fragment, human, UniProt Q96EB6 641-665, looked up) [CTR E656A]
binds: [3]

QYLFLPPNRYIFHGAEVYSDSEDDV (domain or fragment, human, UniProt Q96EB6 641-665, looked up) [GST-tagged C-terminal regulatory segment of SIRT1 (GST-CTR)]
binds: [2]

QYLFLPPNRYIFHGAEVYSDSEDDV (domain or fragment, human, UniProt Q96EB6 641-665, looked up) [C-terminal regulatory segment of SIRT1 (CTR), residues 641-665]
not listed: [1] | [2] | [3]
binds: all other assays above
